According to PMC11940548:

Legend:
[1] = target: MotA1 from Paenibacillus sp. TCA20 (Paenibacillus sp. TCA20); experiment: cryo-EM structure; co-expressed chimeric MotA1/MotB1-His6 complex, solubilised in LMNG, purified by Ni-affinity and SEC, reconstituted into peptidisc; 20 mM Tris-HCl pH 8.0, 100 mM NaCl; single particle analysis, three classes (3.3, 3.3 and 3.5 Å)
[2] = target: chimeric MotB1 (N-terminal transmembrane domain of Paenibacillus sp. TCA20 MotB1 joined to the C-terminal periplasmic domain of E. coli MotB) (Paenibacillus sp. TCA20 | E. coli) (UniProt P0AF06); experiment: as above

Substance	stoichiometry N [1]	stoichiometry N [2]
MotA1 from Paenibacillus sp. TCA20 (natural protein)	5	
chimeric MotB1 (N-terminal transmembrane domain of Paenibacillus sp. TCA20 MotB1 joined to the C-terminal periplasmic domain of E. coli MotB) (from UniProt P0AF06 104-302)		2
